Our source for the Aβ40 and Aβ42 values is patent US9790551B2, “Use of TRPC6 mRNA levels in peripheral blood cells for early detection/diagnosis of senile dementia” (Aging Wise Biotechnology, Inc., priority 2013, dated 2017).

To fix the notation:
B1: TRPC5: TRPC family member TRPC5, overexpressed from plasmid as comparison (protein, UniProt Q9UL62 1-973, looked up)
chain: MAQLYYKKVNYSPYRDRIPLQIVRAETELSAEEKAFLNAVEKGDYATVKQALQEAEIYYNVNINCMDPLGRSALLIAIENENLEIMELLLNHSVYVGDALLYAIRKEVVGAVELLLSYRRPSGEKQVPTLMMDTQFSEFTPDITPIMLAAHTNNYEIIKLLVQKRVTIPRPHQIRCNCVECVSSSEVDSLRHSRSRLNIYKALASPSLIALSSEDPILTAFRLGWELKELSKVENEFKAEYEELSQQCKLFAKDLLDQARSSRELEIILNHRDDHSEELDPQKYHDLAKLKVAIKYHQKEFVAQPNCQQLLATLWYDGFPGWRRKHWVVKLLTCMTIGFLFPMLSIAYLISPRSNLGLFIKKPFIKFICHTASYLTFLFMLLLASQHIVRTDLHVQGPPPTVVEWMILPWVLGFIWGEIKEMWDGGFTEYIHDWWNLMDFAMNSLYLATISLKIVAYVKYNGSRPREEWEMWHPTLIAEALFAISNILSSLRLISLFTANSHLGPLQISLGRMLLDILKFLFIYCLVLLAFANGLNQLYFYYETRAIDEPNNCKGIRCEKQNNAFSTLFETLQSLFWSVFGLLNLYVTNVKARHEFTEFVGATMFGTYNVISLVVLLNMLIAMMNNSYQLIADHADIEWKFARTKLWMSYFDEGGTLPPPFNIIPSPKSFLYLGNWFNNTFCPKRDPDGRRRRRNLRSFTERNADSLIQNQHYQEVIRNLVKRYVAAMIRNSKTHEGLTEENFKELKQDISSFRYEVLDLLGNRKHPRSFSTSSTELSQRDDNNDGSGGARAKSKSVSFNLGCKKKTCHGPPLIRTMPRSSGAQGKSKAESSSKRSFMGPSLKKLGLLFSKFNGHMSEPSSEPMYTISDGIVQQHCMWQDIRYSQMEKGKAEACSQSEINLSEVELGEVQGAAQSSECPLACSSSLHCASSICSSNSKLLDSSEDVFETWGEACDLLMHKWGDGQEEQVTTRL
modifications: full-length
notes: TRPC family member TRPC5, overexpressed from plasmid as comparison
B2: 437/633aa: TRPC6 fragment 437~633aa expressed from plasmid (protein, UniProt Q9Y210 437-633, looked up, fragment)
chain: RGPFMKFVAHAASFTIFLGLLVMNAADRFEGTKLLPNETSTDNAKQLFRMKTSCFSWMEMLIISWVIGMIWAECKEIWTQGPKEYLFELWNMLDFGMLAIFAASFIARFMAFWHASKAQSIIDANDTLKDLTKVTLGDNVKYYNLARIKWDPSDPQIISEGLYAIAVVLSFSRIAYILPANESFGPLQISLGRTVKD
B3: 1/405aa: TRPC6 fragment 1~405aa expressed from plasmid (protein, UniProt Q9Y210 1-405, looked up, fragment)
chain: MSQSPAFGPRRGSSPRGAAGAAARRNESQDYLLMDSELGEDGCPQAPLPCYGYYPCFRGSDNRLAHRRQTVLREKGRRLANRGPAYMFSDRSTSLSIEEERFLDAAEYGNIPVVRKMLEECHSLNVNCVDYMGQNALQLAVANEHLEITELLLKKENLSRVGDALLLAISKGYVRIVEAILSHPAFAEGKRLATSPSQSELQQDDFYAYDEDGTRFSHDVTPIILAAHCQEYEIVHTLLRKGARIERPHDYFCKCNDCNQKQKHDSFSHSRSRINAYKGLASPAYLSLSSEDPVMTALELSNELAVLANIEKEFKNDYKKLSMQCKDFVVGLLDLCRNTEEVEAILNGDVETLQSGDHGRPNLSRLKLAIKYEVKKFVAHPNCQQQLLSIWYENLSGLRQQTMAV
B4: 389/510aa: TRPC6 fragment 389~510aa expressed from plasmid (protein, UniProt Q9Y210 389-510, looked up, fragment)
chain: SIWYENLSGLRQQTMAVKFLVVLAVAIGLPFLALIYWFAPCSKMGKIMRGPFMKFVAHAASFTIFLGLLVMNAADRFEGTKLLPNETSTDNAKQLFRMKTSCFSWMEMLIISWVIGMIWAEC
B5: 508/633aa: TRPC6 fragment 508~633aa expressed from plasmid (protein, UniProt Q9Y210 508-633, looked up, fragment)
chain: AECKEIWTQGPKEYLFELWNMLDFGMLAIFAASFIARFMAFWHASKAQSIIDANDTLKDLTKVTLGDNVKYYNLARIKWDPSDPQIISEGLYAIAVVLSFSRIAYILPANESFGPLQISLGRTVKD
B6: 725/930aa: TRPC6 fragment 725~930aa expressed from plasmid (protein, UniProt Q9Y210 725-930, looked up, fragment)
chain: AMINSSFQEIEDDADVEWKFARAKLWFSYFEEGRTLPVPFNLVPSPKSLFYLLLKLKKWISELFQGHKKGFQEDAEMNKINEEKKLGILGSHEDLSKLSLDKKQVGHNKQPSIRSSEDFHLNSFNNPPRQYQKIMKRLIKRYVLQAQIDKESDEVNEGELKEIKQDISSLRYELLEEKSQNTEDLAELIRELGEKLSMEPNQEETN
B7: 389/930aa: TRPC6 fragment 389~930aa expressed from plasmid (protein, UniProt Q9Y210 389-930, looked up, fragment)
chain: SIWYENLSGLRQQTMAVKFLVVLAVAIGLPFLALIYWFAPCSKMGKIMRGPFMKFVAHAASFTIFLGLLVMNAADRFEGTKLLPNETSTDNAKQLFRMKTSCFSWMEMLIISWVIGMIWAECKEIWTQGPKEYLFELWNMLDFGMLAIFAASFIARFMAFWHASKAQSIIDANDTLKDLTKVTLGDNVKYYNLARIKWDPSDPQIISEGLYAIAVVLSFSRIAYILPANESFGPLQISLGRTVKDIFKFMVIFIMVFVAFMIGMFNLYSYYIGAKQNEAFTTVEESFKTLFWAIFGLSEVKSVVINYNHKFIENIGYVLYGVYNVTMVIVLLNMLIAMINSSFQEIEDDADVEWKFARAKLWFSYFEEGRTLPVPFNLVPSPKSLFYLLLKLKKWISELFQGHKKGFQEDAEMNKINEEKKLGILGSHEDLSKLSLDKKQVGHNKQPSIRSSEDFHLNSFNNPPRQYQKIMKRLIKRYVLQAQIDKESDEVNEGELKEIKQDISSLRYELLEEKSQNTEDLAELIRELGEKLSMEPNQEETN

In one assay the test system is Aβ levels in HEK293APP stable cells. Put plainly: Aβ ELISA, HEK293APP stable cells treated with TAT fusion peptides. The format is cell-based. To be noted: Table 8; HEK293APP stable cells; TAT = 1. Here is the method:
(§1) Upon collecting the culture medium of the cells, Aβ40 and Aβ42 levels were quantified with sandwich ELISA kit, respectively (purchased from Invitrogen). The forebrain of the mouse was dissected and separated, and then homogenized with GuHCL. After that, total Aβ was determined by ELISA. For determining TBST(Tris-Buffered Saline and 1% TritonX100, 1% SDS, 1% DOC) soluble and insoluble Aβ, upon TBST homogenation and centrifugation of the forebrain of the mouse, the supernatant was determined for TBST soluble Aβ by ELISA, and the precipitate was determined for TBST insoluble Aβ by ELISA upon another GuHCL homogenate.
In this Example, the second transmembrane domain (487-507aa, TM2) was selected to fuse with cell penetrating peptide TAT and the fusion peptide TAT-TM2 and the mutant thereof TAT-TM2mut were obtained. Their effects on Aβ levels were examined in HEK293APP stable cells.
6.1.2 The Effect of Different Doses of Fusion Protein TAT-TM2 on Aβ Levels in HEK293APP Stable Cells were Determined.
To search for shorter fragments which could inhibit Aβ levels, TM2 was divided into N- and C-terminals and fused with TAT respectively. The effects of TAT-TM2-N, TAT-TM2-C and TAT-TM2-C mutant on Aβ levels in HEK293APP cells was examined.
A general note: An ELISA detects its analyte on a solid surface through an enzyme-linked reagent.
In turn, “TAT-TM2-mut: mutated TAT-TM2 peptide, SEQ ID NO.:22, TSCFSWMEMLIISDDIGMDDAGRKKRRQRRRC (fusion protein)” yielded an Aβ40 of 0.89 ± 0.07 and an Aβ42 of 0.93 ± 0.09.

Staying with this assay, now noted: Table 9; TAT-TM2 variants, HEK293APP cells; TAT = 1.
For the molecule “TAT-TM2-C-m1: TAT-TM2-C mutant, SEQ ID NO.:25, DDSWVIGMIWAGRKKRRQRRRC (fusion protein)”, the Aβ40 is 0.54 ± 0.01 and the Aβ42 worked out at 0.33 ± 0.07.

Regarding “TAT-TM2-C-m2: TAT-TM2-C mutant, SEQ ID NO.:26, IISDDIGMIWAGRKKRRQRRRC (fusion protein)”, the Aβ40 amounted to 1.09 ± 0.10 and the Aβ42 is given as 1.04 ± 0.15.

As for “TAT-TM2-C-m3: TAT-TM2-C mutant, SEQ ID NO.:27, IISWVIGMDDAGRKKRRQRRRC (fusion protein)”, the Aβ40 came out at 1.07 ± 0.11 and the Aβ42 stood at 1.07 ± 0.13.

With “TAT-TM2-C: C-terminal of TM2 fused with TAT, SEQ ID NO.:24, IISWVIGMIWAGRKKRRQRRRC (fusion protein)”, the Aβ40 is 0.71 ± 0.07 and the Aβ42 came out at 0.72 ± 0.03.

Turning to “TAT-TM2-N: N-terminal of TM2 fused with TAT, SEQ ID NO.:23, TSCFSWMEMLGRKKRRQRRRC (fusion protein)”, the Aβ40 is 0.97 ± 0.04 and the Aβ42 is on record as 0.97 ± 0.04.

The test system is the same in a further assay. Nature of the assay: Aβ ELISA of culture medium, HEK293APP stable cells transfected with TRPC plasmids. The format is cell-based. The following applies: Table 1; HEK293APP stable cell, 1 ug plasmid, medium ELISA after 48 hr; empty vector = 1. On the procedure: as §1
HEK293APP stable cell line was cultured in DMEM culture solution (containing 200 ng/ml G418) with 10% FBS. C0S7C99 cells were cultured in MEM/F12 culture solution (containing 0.4 ug/ml hygromycin B) with 5% FBS, 1% NEAA, and 200 mM Glutamax. All the transfection was conducted by using Lipofectamin 2000 (Invitrogen).
HEK293 cells were inoculated to 60 mm dishes. When the density was close to 80%, 4 ug APP plasmid was transfected with Lipofectamine 2000. After 4 h, the culture medium was replaced and 400 ng/ml of G418 was added. Cells were passage 2 days later and G418 in the culture was maintained at 400 ng/ml. After 2-3 weeks, the cells not transected died gradually, and the survived cells were HEK293 cells expressing APP. Then, G418 was reduced to and maintained at 200 ng/ml.
TRPC6 or TRPC5 was overexpressed in HEK293APP stable cell lines respectively (Cells were passaged into 12-well plates till the densities were close to 80%. Each well was transfected with 1 ug plasmid using Lipofectamine 2000, and the Aβ levels in the medium were determined with ELISA after 48 hr).
Afterwards, HEK293APP stable cells were passaged in 12-well plate till the density approached 80%. Each well was transfected with lug plasmid using Lipofectamine 2000, and the Aβ levels in the culture medium were determined with ELISA after 48 h. The targeting fragment was primarily narrowed down to 437-507aa.
The […] of TRPC6 contains the first transmembrane regions(TM1), the first extracellular loop (Loop1), and the second transmembrane regions (TM2). To further narrow down the active domain, we constructed 3 variant plasmids, with TM2 region replacement by TM1 region (C6-mut1), reversal of TM2 sequence (C6-mut2) or point mutations within TM2 region(C6-mut3). Then HEK293APP stable cells were passaged in 12-well plate. When the density was close to 80%, every well was transfected with lug plasmid using Lipofectamine 2000, and the Aβ levels in the medium were determined with ELISA after 48 h. The active fragment was further narrowed down to 487-507aa.
B1 returned an Aβ40 of 0.9900 ± 0.02548 and an Aβ42 of 0.9488 ± 0.02053.

Staying with this assay, now noted: Table 4; TRPC6 fragments, HEK293APP stable cells, 48 h; empty vector = 1.
The molecule B2 had an Aβ40 of 0.8146 ± 0.07986 and an Aβ42 of 0.7096 ± 0.09708.

Take B3: the Aβ40 stood at 0.9674 ± 0.06376 and the Aβ42 is 0.9822 ± 0.03662.

Molecule B4 displayed an Aβ40 of 0.5959 ± 0.08036 and an Aβ42 of 0.6131 ± 0.1299.

B5 had an Aβ40 of 1.016 ± 0.04396 and an Aβ42 of 1.042 ± 0.02037.

As for B6, the Aβ40 is given as 1.007 ± 0.07289 and the Aβ42 is listed as 0.9822 ± 0.0099.

B7 registered an Aβ40 of 0.7699 ± 0.07728 and an Aβ42 of 0.7217 ± 0.0695.
